Reference: US20150098945A1 (Daiichi Sankyo, published 2015)

Legend:
[1] = target: T1, rat ROBO4 (pCI-raROBO4-transfected HEK293 cells) (rat, UniProt Q80W87 38-949 at identity 0.93)); test: flow cytometry (FC500), HEK293 cells transfected with pCI-raROBO4, FITC goat anti-human IgG Fc; control histogram IgG (human IgG)
T1 chain: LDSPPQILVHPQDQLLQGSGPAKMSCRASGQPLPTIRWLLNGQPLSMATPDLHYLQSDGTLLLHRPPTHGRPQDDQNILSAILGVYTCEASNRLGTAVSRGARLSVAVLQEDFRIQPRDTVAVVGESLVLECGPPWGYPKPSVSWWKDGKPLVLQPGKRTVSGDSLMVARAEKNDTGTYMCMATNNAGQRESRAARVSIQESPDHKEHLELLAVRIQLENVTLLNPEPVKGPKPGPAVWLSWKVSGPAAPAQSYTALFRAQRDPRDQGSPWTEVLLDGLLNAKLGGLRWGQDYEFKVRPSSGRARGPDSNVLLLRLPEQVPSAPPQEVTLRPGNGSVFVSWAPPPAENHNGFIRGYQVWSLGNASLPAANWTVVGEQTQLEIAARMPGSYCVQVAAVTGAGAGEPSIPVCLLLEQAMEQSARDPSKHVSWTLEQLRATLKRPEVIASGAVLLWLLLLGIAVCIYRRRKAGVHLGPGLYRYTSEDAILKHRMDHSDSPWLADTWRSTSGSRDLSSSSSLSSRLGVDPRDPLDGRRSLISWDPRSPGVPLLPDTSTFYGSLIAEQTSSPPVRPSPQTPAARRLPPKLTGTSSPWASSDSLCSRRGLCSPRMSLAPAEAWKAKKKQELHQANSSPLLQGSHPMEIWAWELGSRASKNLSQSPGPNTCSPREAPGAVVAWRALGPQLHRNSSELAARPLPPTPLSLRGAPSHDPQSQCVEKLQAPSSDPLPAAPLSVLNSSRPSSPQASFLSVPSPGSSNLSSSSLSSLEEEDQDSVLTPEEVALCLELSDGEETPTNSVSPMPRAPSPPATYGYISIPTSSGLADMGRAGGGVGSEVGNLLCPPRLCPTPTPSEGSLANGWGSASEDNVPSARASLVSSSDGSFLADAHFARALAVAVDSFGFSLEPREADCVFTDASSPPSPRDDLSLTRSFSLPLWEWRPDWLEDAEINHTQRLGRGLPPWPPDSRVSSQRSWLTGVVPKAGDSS

[2] = target: N-terminal FLAG-tagged human ROBO1 (pCI-FLAG-hROBO1-transfected HEK293 cells) (human, UniProt Q9Y6N7 58-1651); test: flow cytometry, HEK293 cells transfected with pCI-FLAG-hROBO1, anti-mouse IgG FITC; control histogram IgG
Procedure: HEK293 cells were inoculated at a concentration of 1.2×10⁶ cells/dish or 1.5×10⁶ cells/dish to a 60-mm dish (manufactured by Corning Inc.) and cultured overnight in a DMEM medium containing 10% FBS at 37° C. under 5% CO₂ conditions. On the next day, the HEK293 cells were transfected with pCI-hROBO4, pCI-FLAG-hROBO1, pCI-hROBO2, or pCI-hROBO3 using FuGENE6 Transfection Reagent and further cultured overnight at 37° C. under 5% CO₂ conditions. On the next day, the expression vector-transfected cells were treated with TrypLE Express (manufactured by Life Technologies Corp.), washed with PBS containing 5% FBS, and then suspended in PBS containing 5% FBS. The obtained cell suspension was used in flow cytometry analysis.
Each cell suspension prepared in 4)-4-1 was centrifuged, and the supernatant was removed. […] Data was analyzed using Flowjo. The histogram of FITC fluorescence intensity was prepared. The antibody was determined to bind in a specific manner when the histogram of MAb1 was shifted to a stronger fluorescence intensity region compared with the histogram of the negative control Mouse IgG1 or Mouse IgG2a. […]

N-terminal FLAG-tagged human ROBO1 (pCI-FLAG-hROBO1-transfected HEK293 cells), sequence (Q9Y6N7 other isoform, or with tags, fused parts or gaps): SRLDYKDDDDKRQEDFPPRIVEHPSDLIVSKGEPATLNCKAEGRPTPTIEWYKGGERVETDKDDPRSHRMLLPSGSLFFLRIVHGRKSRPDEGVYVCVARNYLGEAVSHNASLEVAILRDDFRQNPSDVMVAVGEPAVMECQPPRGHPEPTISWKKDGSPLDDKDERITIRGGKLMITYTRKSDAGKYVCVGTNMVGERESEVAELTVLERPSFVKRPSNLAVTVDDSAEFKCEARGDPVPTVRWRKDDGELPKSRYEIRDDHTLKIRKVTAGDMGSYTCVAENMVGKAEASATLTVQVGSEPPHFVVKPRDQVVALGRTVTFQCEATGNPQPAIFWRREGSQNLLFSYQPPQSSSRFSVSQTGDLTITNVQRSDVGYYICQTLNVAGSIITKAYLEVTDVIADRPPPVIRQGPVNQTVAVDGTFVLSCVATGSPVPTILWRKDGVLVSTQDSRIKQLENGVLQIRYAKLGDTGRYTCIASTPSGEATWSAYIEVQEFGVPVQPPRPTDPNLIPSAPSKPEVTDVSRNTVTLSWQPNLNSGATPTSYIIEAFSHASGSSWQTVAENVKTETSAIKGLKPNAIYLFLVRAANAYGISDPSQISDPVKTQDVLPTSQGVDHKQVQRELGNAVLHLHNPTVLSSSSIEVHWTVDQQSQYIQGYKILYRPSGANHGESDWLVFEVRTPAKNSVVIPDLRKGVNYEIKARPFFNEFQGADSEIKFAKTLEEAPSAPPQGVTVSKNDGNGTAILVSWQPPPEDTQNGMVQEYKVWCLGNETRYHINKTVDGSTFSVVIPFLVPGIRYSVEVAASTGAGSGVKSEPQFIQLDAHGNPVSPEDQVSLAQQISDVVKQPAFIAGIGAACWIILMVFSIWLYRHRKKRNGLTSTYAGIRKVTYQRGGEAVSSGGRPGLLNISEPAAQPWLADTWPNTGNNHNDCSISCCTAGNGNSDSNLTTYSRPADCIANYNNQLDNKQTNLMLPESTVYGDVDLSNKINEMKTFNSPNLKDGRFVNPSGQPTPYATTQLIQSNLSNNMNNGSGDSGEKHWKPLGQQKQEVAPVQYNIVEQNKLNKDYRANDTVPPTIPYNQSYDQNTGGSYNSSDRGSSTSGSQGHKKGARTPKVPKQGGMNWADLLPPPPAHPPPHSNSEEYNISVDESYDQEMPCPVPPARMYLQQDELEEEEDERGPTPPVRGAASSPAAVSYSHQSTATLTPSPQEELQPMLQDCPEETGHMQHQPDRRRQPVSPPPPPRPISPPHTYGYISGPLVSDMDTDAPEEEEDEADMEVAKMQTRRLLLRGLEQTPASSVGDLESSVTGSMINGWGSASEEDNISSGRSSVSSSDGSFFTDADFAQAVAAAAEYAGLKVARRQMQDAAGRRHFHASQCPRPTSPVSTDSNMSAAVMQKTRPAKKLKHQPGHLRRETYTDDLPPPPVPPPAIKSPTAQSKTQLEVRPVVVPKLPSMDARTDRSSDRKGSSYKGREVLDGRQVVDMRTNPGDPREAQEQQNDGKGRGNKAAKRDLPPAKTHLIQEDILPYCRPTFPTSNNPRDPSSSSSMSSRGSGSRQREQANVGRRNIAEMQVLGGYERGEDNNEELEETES

B1: humanized MAb1 antibody H-2143 (antibody, human IgG2, kappa, V domains shown)
VH: EVQLVESGGGLVQPGGSLRLSCAASGFTFSTYAMSWVRQAPGKRLEWVATISQGGTYTYYPDSVKGRFTISRDNAKNTLYLQMNSLRAEDTAVYYCARLIYYDYLDYWGQGTLVTVSS
VL: DIVMTQSPLSLPVTLGEPASISCRSSQSLENENKNLYLNWYLQKPGQSPQLLIYRVSNRFSGVPDRFSGSGSGTDFTLKISRVEAEDVGVYYCLQVTHVPWTFGPGTKVDIKR
notes: Human IgG2 / kappa constant regions; also called hMAb1-H4-type heavy chain + hMAb1-L2-type light chain
B1: no binding (tested: 10 µg/mL) [1].

B2: anti-ROBO4 mouse monoclonal antibody MAb1 (antibody, mouse IgG1, V domains shown)
VH: EVQLVESGGGLVKPGGSLKLSCAASGFTFSTYAMSWVRQTPEKRLEWVATISNGGTYTYYPDSVKGRFTISRDNAENTLYLQMSSLRSEDTAMYFCARLIYYDYLDYWGHGTTLTVSS
VL: DAVMTQTPLSLPVSLGDQASISCRSSQSLENSNGNTYLNWYFQKPGQSPQLLIYRVSNRFSGVLDRFSGSGSGTDFTLKISRVEAEDFGVYFCLQVTHVPWTFGGGTKLEIKR
notes: Mouse IgG1 (gamma1), kappa light chain, purified from hybridoma supernatant; also called parent antibody MAb1
B2: no binding (tested: 10 µg/mL) [2].
